The text below walks through data of a protein production outcome set (Wang et al. 2014).

The data set is described as follows: label from the status in PepcDB records.
Consider “MKIALIGASGYVGSALLKEALSRGHHVTALVSRPERIAAQANLAAAKVDVQDSAQLAEQLKGFDAVLSAFSGHAQAEQFDYFVKGIRSIIAAAKAAQAPRLLVVGGAGSLEVAPGVQLVDTPEFPEQWKASALGAREALNLLRAETELNWTLLSPSAMLQPGQRTGQFRLGKDQLLVDAEGNSHISVEDYAVAMIDELEKGEHQRSRFTVGYLEHHHHHH”, for which the protein production entry is on record as “not failed”.

Consider “MKEGKHFVLVHGACHGGWSWYKLKPLLEAAGHKVTALDLAASGTDLRKIEELRTLYDYTLPLMELMESLSADEKVILVGHSLGGMNLGLAMEKYPQKIYAAVFLAAFMPDSVHNSSFVLEQYNERTPAENWLDTQFLPYGSPEEPLTSMFFGPKFLAHKLYQLCSPEDLALASSLVRPSSLFMEDLSKAKYFTDERFGSVKRVYIVCTEDKGIPEEFQRWQIDNIGVTEAIEIKGADHMAMLCEPQKLCASLLEIAHKYNLEHHHHHH”, for which the protein production entry was “not failed”.

With “MKKIISLALALALSASAAELKMATTTSTDNTGLLDALKPLYEKESGNTLKWVAVGTGAALKMGEDCNADVLFVHSPKAEKEFMKKGFGVDRTPVMYNDFIIIADKSLASKFKGKNLKESLELIKNEKLTFISRGDKSGTDNKEKSLWKNLGGVPEKQSWYQQSGQGMLASIKIAEEKKGVILTDRGTYIKYEANEKGKPNLVIVNEGDDSLKNFYSVIATNPKHCKNVNYTEASKFIKWVTSDKTLNFIADFKLLNKPLFVIDAKTRKD”, the protein production result is on record as “failed”.

For the sequence “MAEAANKNKPHKLIIDNRNSMSMTGVTKVISIDTDLVLLVTEQGKLKITGKNMQASTLDLDKGILELTGNFNTMVYSGEKEGALSLKSLFK”, the protein production result is “failed”.

Consider “MLSKPMELLRPSKGMINVHPIQRGGILTEEARKVLLEWGDGYSMCDICLEGRVDLLDKPPVKRFKEEVAEFLGMDEVRFTAGARHAKFVAMSGFKGALVVDSLAHYTTYIAAELNGLRVYEVPNTGYPEFRIEAESYTDVFEKVKEETGDYPAVALLTHADYKYGNLADAKKVAEICRDYGIPLILNTAYTSGIMEVSGRETGCDFIVASGHKSWAATAPIGILATTFEFAERVFRVSEVRGNWSGRAFTKKEVALFGCSPVYGLPLVTLMASFPVVKERVKRWKEEVEKARWFVEEMEKIEGVMLLGERPKNHTLMNFETPSFNLIAKKHRRKGYFLYHELKERGIFGVQPGMTRNVKLNVYGLSWEEVERVAEAFKEIAEKYGLEVED”, for which the protein production entry is listed as “failed”.

Consider “MFEISRSRAKAMRPFLALATATVMMLSLAACSSSDNSSTNAQGNTDVAVGGQRFSTADQETAKLGSDAQPGQFPRTVVHAAGTTEITTKPERVVVLDTGELDSVLSLGITPVGMTTTKGANPVPSYLADKVKDVERVGTINELNIEAIAALKPDLIIGSQLRADKLYPQLSDIAPTVFSIRPGSPWKENFLLVGEALGMEKEAEEKLNEYADRVAELKNNVPQNTEVSLVRFMPNKLRLYGNKSLIGVVLADAGLARPEKQNVDDLAVEISPENIDQAAGSVIFYTSYGKPDATGETAVVEGPAWKNLEAVAAGKAHRVNDDVWFLGLGPTGAMEIVSDLHDYLLKK”, for which the protein production result is listed as “failed”.

Consider “MRTWKMRKDGQRIDYLGRKWRNLGGPFMEVSRVVTWIIIITLVALAIKTILPFFSPLFFAFITAYALYPLHIKLKERIGSKNSAILLTLFLLLGALMILLILVYTLTPVIGQAYDYLTNLEKIKINIPLVPKSVISSLEGVIDEFIERGKGYLVSLTFSVPKYLLQVIVYLTFVYFFLVKEKEARELITFEDEKLIRIIERGNLTLQALIRVWLLLNIVKGILMTLGFLIFKVSNLPTAILAGLLTVLFSFIPLFEGWMIWLAGAFYLVKQGHIIAGIGLAVYGFTLVSPLPDFTIRPKLVAREAEFNDVLVLIGMIGGTWGLGLKGLIIGPIVLNVAIEMLREWKNVQAKTERS”, for which the protein production result is listed as “failed”.

For “MGDREKNVGFAASLNILFTIIELIGGILTNSLALLADAMHDFADSLALIVAWFAEKKAKKPATSKMTFGYRRLSLLSAAFATIVLIAGSLFILSQAIPRLLNPEPVNAEGMFLIAIIGVTINGLGYFRLKKGISQNEKILSWHLLEDILGWVVLLIGSVIIGFWNQPIIDPIMTIGFTIFVLWGVFKNAKETFNLLLEGVPEYIDIDEVKESILSVEGTKAVHDLHIWSLEGETDILTAHVVVEDEYLARPDKMRQSIKSRLEKHQIEHSTLELESEGFCSGTECIFELKG”, the protein production result was “failed”.

For “MFDNLQRKFLNLIGIEIEEEDKPQESTKAKEENVKPKHETPKVVTIGKANQTEVTVYNLKLFDEVVKVCDALRENKIVVFNLEQVAEDHIQRIIDFVSGAVYVLDAKIHKVSKKIFVVVPRSIDLEVDEQLKEEFRTKGVFAWLK”, the protein production entry is recorded as “failed”.

On to “MIREKALEFHKNNFPGNGKIEVIPKVSLESREELTLAYTPGVAEPCKEIARDPGKVYEYTSKGNLVAVVSDGSRILGLGNIGPLAGLPVMEGKALLFKRFGGVDAFPIMIKEQEPNKFIDIVKAIAPTFGGINLEDIASPKCFYILERLREELDIPVFHDDQQGTAAVVLAGLLNALKVVGKKISEITLALFGAGAAGFATLRILTEAGVKPENVRVVELVNGKPRILTSDLDLEKLFPYRGWLLKKTNGENIEGGPQEALKDADVLISFTRPGPGVIKPQWIEKMNEDAIVFPLANPVPEILPEEAKKAGARIVATGRSDYPNQINNLLGFPGIFRGALDVRARTITDSMIIAAAKAIASIVEEPSEENIIPSPLNPIVYAREARAVAEEAMKEGVARTKVKGEWVEEHTIRLIEFYENVIAPINKKRREYSKAITRA”, for which the protein production entry was “not failed”.

With “MATLGANASLYSEQHRITYYECDRTGRATLTTLIDIAVLASEDQSDALGLTTEMVQSHGVGWVVTQYAIDITRMPRQDEVVTIAVRGSAYNPYFAYREFWIRDADGQQLAYITSIWVMMSQTTRRIVKILPELVAPYQSEVVKRIPRLPRPISFEATDTTITKPYHVRFFDIDPNRHVNNAHYFDWLVDTLPATFLLQHDLVHVDVRYENEVKYGQTVTAHANILPSEVADQVTTSHLIEVDDEKCCEVTIQWRTLPEPIQ”, the protein production entry is recorded as “not failed”.

Take “MRVLKKFFSGDNLLERVLILIVGLVASLILVIKSADLFVDNLVDLGSSLGISEVILGVTASAIGTSLPEFGSALIASLSGSTDIGVGCVIGSNIWNIAGILGISSVVAGIIETNADGLKRDFSATLVTGLILLFFMFFGNIGKIAALVMVLTYAVYLWRLIKAQKTYSDENSGKNEREPLDLKKLALTVVGFAGLVIGCRILVYTGVELADIAGIPAMIMGLFTLAIGTSIPELVVTLSSAVKGLHELSIGTVLGSNTFNILVGIGVPALIAPVPVERLSLTFDAPVMILVTVLLVLLIRQGDMKLKRTGGIVLLAVYISYVIMRLFVLA”: the protein production result is recorded as “failed”.

Regarding “MTTPSHLSDRYELGEILGFGGMSEVHLARDLRLHRDVAVKVLRADLARDPSFYLRFRREAQNAAALNHPAIVAVYDTGEAETPAGPLPYIVMEYVDGVTLRDIVHTEGPMTPKRAIEVIADACQALNFSHQNGIIHRDVKPANIMISATNAVKVMDFGIARAIADSGNSVTQTAAVIGTAQYLSPEQARGDSVDARSDVYSLGCVLYEVLTGEPPFTGDSPVSVAYQHVREDPIPPSARHEGLSADLDAVVLKALAKNPENRYQTAAEMRADLVRVHNGEPPEAPKVLTDAERTSLLSSAAGNLSGPRTDPLPRQDLDDTDRDRSIGSVGRWVAVVAVLAVLTVVVTIAINTFGGITRDVQVPDVRGQSSADAIATLQNRGFKIRTLQKPDSTIPPDHVIGTDPAANTSVSAGDEITVNVSTGPEQREIPDVSTLTYAEAVKKLTAAGFGRFKQANSPSTPELVGKVIGTNPPANQTSAITNVVIIIVGSGPATKDIPDVAGQTVDVAQKNLNVYGFTKFSQASVDSPRPAGEVTGTNPPAGTTVPVDSVIELQVSKGNQFVMPDLSGMFWVDAEPRLRALGWTGMLDKGADVDAGGSQHNRVVYQNPPAGTGVNRDGIITLRFGQ”, the protein production entry is recorded as “failed”.

Turning to “MFSFVQMTGCLLPLTALTPLSHCTRPRNALALLQSSWKGGSLAISLVRNAVAAVLAAALSVPVSADVGAGSYLAARQAVFANDFSSAADYFARALAIDPQNPALMENMVLSQLALGRLEQAYPVAQLMQEAGLQSQVANIAIVVHLLSEERYQEVLDRDPEMRGVGKLVDGLVAGWAEMGLGSVARALAQFDKVADEAGLRGFANYHKAMALASVGDFEGAEALFAADDGALTTISRRAALARAEILSQLDRNDQALEMLADVFSGGFDPALSDIADRLVAGETLPFSLVRSVRDGLAEVFFTIGAALNGEASDDFTLVYIRSAVHLRPDHIDALLMTAGLLESLGQYDLAVATYKQIPNDSPDYHAAELGRAEALRRSAKPDAAIEVLEKLAKDYPSQPQAFVALGDLQRQQEAYDRAATAYDKALQLTDPGAPNMWFLHYARGICHERLGNWPGAEADFRAALELNPDQPQVLNYLGYSLVEKQEKLDEALDLIERAVAARPDSGYIVDSLGWVLFRLGRYDEAVGHMERAVELMPVDPVVNDHLGDVLWAVGRVREAEFQWRRALSFIKADDTDGEADPERIRRKLEIGLDRVLAEEGVPPLKVANGD”, the protein production entry is on record as “failed”.

Take “MDWGTELWDQFEVLERHTQWGLDLLDRYVKFVKERTEVEQAYAKQLRSLVKKYLPKRPAKDDPESKFSQQQSFVQILQEVNDFAGQRELVAENLSVRVCLELTKYSQEMKQERKMHFQEGRRAQQQLENGFKQLENSKRKFERDCREAEKAAQTAERLDQDINATKADVEKAKQQAHLRSHMAEESKNEYAAQLQRFNRDQAHFYFSQMPQIFDKLQDMDERRATRLGAGYGLLSEAELEVVPIIAKCLEGMKVAANAVDPKNDSHVLIELHKSGFARPGDVEFEDFSQPMNRAPSDSSLGTPSDGRPELRGPGRSRTKRWPFGKKNKTVVTEDFSHLPPEQQRKRLQQQLEERSRELQKEVGQREALKKMKDVYEKTPQMGDSASLEPQIAETLSNIERLKLEVQKYEAWLAEAESRVLSNRGDSLSRHARPPDPPASAPPDSSSNSASQDTKESSEEPPSEESQDTPIYTEFDEDFEEEPTSPIGHCVAIYHFEGSSEGTISMAEGEDLSLMEEDKGDGWTRVRRKEGGEGYVPTSYLRVTLN”: the protein production entry is “not failed”.

Regarding “VRQVEEYIEANWMRPITIEKLTALTGISSRGIFKAFQRSRGYSPMAFAKRVRLQHAHNLLSDGATPTTVTAAALSCGFSNLGHFARDYRDMFGEKPSETLQRARP”, the protein production result is reported as “not failed”.

For the sequence “MNPENWLLLRRVVRFGDTDAAGVMHFHQLFRWCHESWEESLESYGLNPADIFPGSRKSEVTPEVALPIIHCQADFRRPIHTGDALAMELRPERLNPNSFQVHFEFRCEEQIAAHALIRHLAINAQTRHRCALPEGIDRWLEASGVGKIGSI”, the protein production entry was “not failed”.

On to “MTDIIREYYNKNSKNEWLRLNDPYNRLELFSTMYMIKEYFPQEGKILDIGSGPGRYSIELLKRGYEVSLMDLSEKSIDMAKNNIESMGLKANDYICGDALYLDFIKDNTFDGILLMGPMYHVKSREDRIRILENCMRILKPGGIILIAYINSLGVLKVGLSDFPQEYKDINKIYDLFDEKGFSQEESFTETYFTVPEKAISEVNEVGFNILSRAGAESFLSGQAFYMTKYYLEDKEIYFNLLKVATEKCEDERFRDSTEHLIIVAKK”, for which the protein production result is listed as “failed”.

“MKLFSSGRKTPTSSPASSHAGAMDETVGVTSTSEAANVATQPVPTPVEDVPNGVRTAAGWCWRMIVIAAFIYGLYQVLHAASEVSVPVAVALMLTAAMWPLANWLSRHHIHRGIASGICLLLLVILVGGVFTLVGAQIALQWRQLGDQSVASFKQALQWLAKSPLHTNEAQLTHLMQKAEAAMAGSQGRIASTAAAAGSQIGRFGAGLVMALFATFFFVYEGDKLAEKSAVLIPREHRAAILDAAKRGWVALVAYVRAAVIVAFVDGLGAGIGAAIIGSSMSVAIGALTFILAFVPIVGALTAGVVAVGVVLVTLGFFKAFIMLIVFVAVMQIEGHVLQPFLLGKAVSIHPLIVLLGIAVGAIISGIVGALFAIPIVAFGVAFIKALNPETPANEVPPNHDDLAAEHT”: the protein production entry is listed as “failed”.

Regarding “MKCKRLNEVIELLQPAWQKEPDFNLLQFLQKLAKESGFDGELADLTDDILIYHLKMRDSAKDAVIPGLQKDYEEDFKTALLRARGVIKELEHHHHHH”, the protein production result was “not failed”.
